Reference: US20140341937A1 (US Dept. of Health and Human Services, published 2014)

B1: TARC-PE38 (ligand)
chain: MARGTNVGRECCLEYFKGAIPLRKLKTWYQTSEDCSRDAIVFVTVQGRAICSDPNNKRVKNAVKYLQSLERSDGGGSGGGGSLEASGGPEGGSLAALTAHQACHLPLETFTRHRQPRGWEQLEQCGYPVQRLVALYLAARLSWNQVDQVIRNALASPGSGGDLGEAIREQPEQARLALTLAAAESERFVRQGTGNDEAGAANGPADSGDALLERNYPTGAEFLGDGGDVSFSTRGTQNWTVERLLQAHRQLEERGYVFVGYHGTFLEAAQSIVFGGVRARSQDLDAIWRGFYIAGDPALAYGYAQDQEPDARGRIRNGALLRVYVPRSSLPGFYRTSLTLAAPEAAGEVERLIGHPLPLRLDAITGPEEEGGRLETILGWPLAERTVVIPSAIPTDPRNVGGDLDPSSIPDKEQAISALPDYASQPGKPPREDLKRSAEEQKLISEEDLAHHHHHH
B2: MC148-EDN (ligand)
chain: MALARRKCCLNPTNRPIPNPLLQDLSRVDYQAIGHDCGREAFRVTLQDGRQGCVSVGNKSLLDWLRGHKDLCPQIWSGCESLEFNDAQAPKSLEGGGGSKPPQFTWAQWFETQHINMTSQQCTNAMQVINNYQRRCKNQNTFLLTTFANVVNVCGNPNMTCPSNKTRKNCHHSGSQVPLIHCNLTTPSPQNISNCRYAQTPANMFYIVACDNRDQRRDPPQYPVVPVHLDRIIGSAEEQKLISEEDLAHHHHHH
notes: also called MC148-chemotoxin

What was measured:
CCR4 = biological target: T1, CCR4 (human, UniProt P51679 1-360); assay: cell-based or functional assay
T1 sequence (looked up): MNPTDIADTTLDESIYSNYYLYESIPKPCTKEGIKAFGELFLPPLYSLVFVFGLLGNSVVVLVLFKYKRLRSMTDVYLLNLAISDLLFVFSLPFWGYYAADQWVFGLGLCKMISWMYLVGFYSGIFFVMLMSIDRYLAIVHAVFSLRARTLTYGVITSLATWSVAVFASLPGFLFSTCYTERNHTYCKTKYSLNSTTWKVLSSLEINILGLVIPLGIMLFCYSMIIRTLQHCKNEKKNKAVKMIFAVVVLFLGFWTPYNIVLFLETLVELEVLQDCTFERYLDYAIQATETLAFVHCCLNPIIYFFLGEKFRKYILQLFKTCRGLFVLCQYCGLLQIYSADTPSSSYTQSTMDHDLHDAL

CCR8 = biological target: T2, CCR8 (human, UniProt P51685 1-355); assay: flow cytometry on HEK293/CCR8 cells, 30 min at 4° C., anti-EDN antibody detection
T2 construct: whole, on cells; also called human CCR8; HEK/CCR8
T2 sequence (P51685 whole entry): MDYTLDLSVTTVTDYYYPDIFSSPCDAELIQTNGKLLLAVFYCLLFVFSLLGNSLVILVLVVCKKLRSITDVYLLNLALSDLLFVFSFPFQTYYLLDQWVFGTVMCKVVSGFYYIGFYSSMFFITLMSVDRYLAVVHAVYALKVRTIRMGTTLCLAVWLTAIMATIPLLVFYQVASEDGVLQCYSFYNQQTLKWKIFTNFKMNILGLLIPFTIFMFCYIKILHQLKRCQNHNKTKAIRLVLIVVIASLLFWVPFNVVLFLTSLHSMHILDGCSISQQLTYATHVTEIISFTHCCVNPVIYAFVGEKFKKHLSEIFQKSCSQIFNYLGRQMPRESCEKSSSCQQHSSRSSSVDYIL

Binder	killing of human T lymphoblastoid CCRF-CEM cells in vitro (IC50) (CCR4) [nM]	binding result (CCR8)
B1	3 to 8	–
B2	–	binds
